Columns and labels:
[1] = system: H3K36me3; assay: H3K36 demethylase activity of KDM4A variants in transfected cells (immunofluorescence); format: cell-based; design: key: + indicates active; − indicates inactive; +/− indicates partial acitivty; settings: KDM4A mutations
[2] = system: H3K9me3; assay: H3K9 demethylase activity of KDM4 variants in transfected cells; format: cell-based; design: key: + indicates active; − indicates inactive; +/− indicates partial acitivty; settings: KDM4A mutations

Molecule	H3k36 Demethylase Activity [1]	H3k9 Demethylase Activity [2]
2A-D1023Y: KDM4A mutation (protein) MASESETLNPSARIMTFYPTMEEFRNFSRYIAYIESQGAHRAGLAKVVPPKEWKPRASYDDIDDLVIPAPIQQLVTGQSGLFTQYNIQKKAMTVREFRKIANSDKYCTPRYSEFEELERKYWKNLTFNPPIYGADVNGTLYEKHVDEWNIGRLRTILDLVEKESGITIEGVNTPYLYFGMWKTSFAWHTEDMDLYSINYLHFGEPKSWYSVPPEHGKRLERLAKGFFPGSAQSCEAFLRHKMTLISPLMLKKYGIPFDKVTQEAGEFMITFPYGYHAGFNHGFNCAESTNFATRRWIEYGKQAVLCSCRKDMVKISMDVFVRKFQPERYKLWKAGKDNTVIDHTLPTPEAAEFLKESELPPRAGNEEECPEEDMEGVEDGEEGDLKTSLAKHRIGTKRHRVCLEIPQEVSQSELFPKEDLSSEQYEMTECPAALAPVRPTHSSVRQVEDGLTFPDYSDSTEVKFEELKNVKLEEEDEEEEQAAAALDLSVNPASVGGRLVFSGSKKKSSSSLGSGSSRDSISSDSETSEPLSCRAQGQTGVLTVHSYAKGDGRVTVGEPCTRKKGSAARSFSERELAEVADEYMFSLEENKKSKGRRQPLSKLPRHHPLVLQECVSDDETSEQLTPEEEAEETEAWAKPLSQLWQNRPPNFEAEKEFNETMAQQAPHCAVCMIFQTYHQVEFGGFNQNCGNASDLAPQKQRTKPLIPEMCFTSTGCSTDINLSTPYLEEDGTSILVSCKKCSVRVHASCYGVPPAKASEDWMCSRCSANALEEDCCLCSLRGGALQRANDDRWVHVSCAVAILEARFVNIAERSPVDVSKIPLPRFKLKCIFCKKRRKRTAGCCVQCSHGRCPTAFHVSCAQAAGVMMQPDDWPFVVFITCFRHKIPNLERAKGALQSITAGQKVISKHKNGRFYQCEVVRLTTETFYEVNFDDGSFSDNLYPEDIVSQDCLQFGPPAEGEVVQVRWTDGQVYGAKFVASHPIQMYQVEFEDGSQLVVKRDDVYTLDEELPKRVKSRLSVASYMRFNEIFTEKEVKQEKKRQRVINSRYREDYIEPALYRAIME	+	+
2A-E1032K: KDM4A mutation (protein) MASESETLNPSARIMTFYPTMEEFRNFSRYIAYIESQGAHRAGLAKVVPPKEWKPRASYDDIDDLVIPAPIQQLVTGQSGLFTQYNIQKKAMTVREFRKIANSDKYCTPRYSEFEELERKYWKNLTFNPPIYGADVNGTLYEKHVDEWNIGRLRTILDLVEKESGITIEGVNTPYLYFGMWKTSFAWHTEDMDLYSINYLHFGEPKSWYSVPPEHGKRLERLAKGFFPGSAQSCEAFLRHKMTLISPLMLKKYGIPFDKVTQEAGEFMITFPYGYHAGFNHGFNCAESTNFATRRWIEYGKQAVLCSCRKDMVKISMDVFVRKFQPERYKLWKAGKDNTVIDHTLPTPEAAEFLKESELPPRAGNEEECPEEDMEGVEDGEEGDLKTSLAKHRIGTKRHRVCLEIPQEVSQSELFPKEDLSSEQYEMTECPAALAPVRPTHSSVRQVEDGLTFPDYSDSTEVKFEELKNVKLEEEDEEEEQAAAALDLSVNPASVGGRLVFSGSKKKSSSSLGSGSSRDSISSDSETSEPLSCRAQGQTGVLTVHSYAKGDGRVTVGEPCTRKKGSAARSFSERELAEVADEYMFSLEENKKSKGRRQPLSKLPRHHPLVLQECVSDDETSEQLTPEEEAEETEAWAKPLSQLWQNRPPNFEAEKEFNETMAQQAPHCAVCMIFQTYHQVEFGGFNQNCGNASDLAPQKQRTKPLIPEMCFTSTGCSTDINLSTPYLEEDGTSILVSCKKCSVRVHASCYGVPPAKASEDWMCSRCSANALEEDCCLCSLRGGALQRANDDRWVHVSCAVAILEARFVNIAERSPVDVSKIPLPRFKLKCIFCKKRRKRTAGCCVQCSHGRCPTAFHVSCAQAAGVMMQPDDWPFVVFITCFRHKIPNLERAKGALQSITAGQKVISKHKNGRFYQCEVVRLTTETFYEVNFDDGSFSDNLYPEDIVSQDCLQFGPPAEGEVVQVRWTDGQVYGAKFVASHPIQMYQVEFEDGSQLVVKRDDVYTLDEELPKRVKSRLSVASDMRFNEIFTKKEVKQEKKRQRVINSRYREDYIEPALYRAIME	+	+
2A-E23K: KDM4A mutation (protein) MASESETLNPSARIMTFYPTMEKFRNFSRYIAYIESQGAHRAGLAKVVPPKEWKPRASYDDIDDLVIPAPIQQLVTGQSGLFTQYNIQKKAMTVREFRKIANSDKYCTPRYSEFEELERKYWKNLTFNPPIYGADVNGTLYEKHVDEWNIGRLRTILDLVEKESGITIEGVNTPYLYFGMWKTSFAWHTEDMDLYSINYLHFGEPKSWYSVPPEHGKRLERLAKGFFPGSAQSCEAFLRHKMTLISPLMLKKYGIPFDKVTQEAGEFMITFPYGYHAGFNHGFNCAESTNFATRRWIEYGKQAVLCSCRKDMVKISMDVFVRKFQPERYKLWKAGKDNTVIDHTLPTPEAAEFLKESELPPRAGNEEECPEEDMEGVEDGEEGDLKTSLAKHRIGTKRHRVCLEIPQEVSQSELFPKEDLSSEQYEMTECPAALAPVRPTHSSVRQVEDGLTFPDYSDSTEVKFEELKNVKLEEEDEEEEQAAAALDLSVNPASVGGRLVFSGSKKKSSSSLGSGSSRDSISSDSETSEPLSCRAQGQTGVLTVHSYAKGDGRVTVGEPCTRKKGSAARSFSERELAEVADEYMFSLEENKKSKGRRQPLSKLPRHHPLVLQECVSDDETSEQLTPEEEAEETEAWAKPLSQLWQNRPPNFEAEKEFNETMAQQAPHCAVCMIFQTYHQVEFGGFNQNCGNASDLAPQKQRTKPLIPEMCFTSTGCSTDINLSTPYLEEDGTSILVSCKKCSVRVHASCYGVPPAKASEDWMCSRCSANALEEDCCLCSLRGGALQRANDDRWVHVSCAVAILEARFVNIAERSPVDVSKIPLPRFKLKCIFCKKRRKRTAGCCVQCSHGRCPTAFHVSCAQAAGVMMQPDDWPFVVFITCFRHKIPNLERAKGALQSITAGQKVISKHKNGRFYQCEVVRLTTETFYEVNFDDGSFSDNLYPEDIVSQDCLQFGPPAEGEVVQVRWTDGQVYGAKFVASHPIQMYQVEFEDGSQLVVKRDDVYTLDEELPKRVKSRLSVASDMRFNEIFTEKEVKQEKKRQRVINSRYREDYIEPALYRAIME	+	+
2A-S28N: KDM4A mutation (protein) MASESETLNPSARIMTFYPTMEEFRNFNRYIAYIESQGAHRAGLAKVVPPKEWKPRASYDDIDDLVIPAPIQQLVTGQSGLFTQYNIQKKAMTVREFRKIANSDKYCTPRYSEFEELERKYWKNLTFNPPIYGADVNGTLYEKHVDEWNIGRLRTILDLVEKESGITIEGVNTPYLYFGMWKTSFAWHTEDMDLYSINYLHFGEPKSWYSVPPEHGKRLERLAKGFFPGSAQSCEAFLRHKMTLISPLMLKKYGIPFDKVTQEAGEFMITFPYGYHAGFNHGFNCAESTNFATRRWIEYGKQAVLCSCRKDMVKISMDVFVRKFQPERYKLWKAGKDNTVIDHTLPTPEAAEFLKESELPPRAGNEEECPEEDMEGVEDGEEGDLKTSLAKHRIGTKRHRVCLEIPQEVSQSELFPKEDLSSEQYEMTECPAALAPVRPTHSSVRQVEDGLTFPDYSDSTEVKFEELKNVKLEEEDEEEEQAAAALDLSVNPASVGGRLVFSGSKKKSSSSLGSGSSRDSISSDSETSEPLSCRAQGQTGVLTVHSYAKGDGRVTVGEPCTRKKGSAARSFSERELAEVADEYMFSLEENKKSKGRRQPLSKLPRHHPLVLQECVSDDETSEQLTPEEEAEETEAWAKPLSQLWQNRPPNFEAEKEFNETMAQQAPHCAVCMIFQTYHQVEFGGFNQNCGNASDLAPQKQRTKPLIPEMCFTSTGCSTDINLSTPYLEEDGTSILVSCKKCSVRVHASCYGVPPAKASEDWMCSRCSANALEEDCCLCSLRGGALQRANDDRWVHVSCAVAILEARFVNIAERSPVDVSKIPLPRFKLKCIFCKKRRKRTAGCCVQCSHGRCPTAFHVSCAQAAGVMMQPDDWPFVVFITCFRHKIPNLERAKGALQSITAGQKVISKHKNGRFYQCEVVRLTTETFYEVNFDDGSFSDNLYPEDIVSQDCLQFGPPAEGEVVQVRWTDGQVYGAKFVASHPIQMYQVEFEDGSQLVVKRDDVYTLDEELPKRVKSRLSVASDMRFNEIFTEKEVKQEKKRQRVINSRYREDYIEPALYRAIME	+	+

From US20160113911A1, “METHODS AND COMPOSITIONS FOR THE TREATMENT OF CANCER” (THE GENERAL HOSPITAL CORPORATION, priority 2013, published 2016)
